Reference: patent US20250281611A1 (BIOSCEPTRE AUST, published 2025)

T1: CD19 (UniProt P15391 20-556, limits assumed)
T1 construct: whole, on cells; also called CD19 on JeKo-1
T1 sequence (looked up): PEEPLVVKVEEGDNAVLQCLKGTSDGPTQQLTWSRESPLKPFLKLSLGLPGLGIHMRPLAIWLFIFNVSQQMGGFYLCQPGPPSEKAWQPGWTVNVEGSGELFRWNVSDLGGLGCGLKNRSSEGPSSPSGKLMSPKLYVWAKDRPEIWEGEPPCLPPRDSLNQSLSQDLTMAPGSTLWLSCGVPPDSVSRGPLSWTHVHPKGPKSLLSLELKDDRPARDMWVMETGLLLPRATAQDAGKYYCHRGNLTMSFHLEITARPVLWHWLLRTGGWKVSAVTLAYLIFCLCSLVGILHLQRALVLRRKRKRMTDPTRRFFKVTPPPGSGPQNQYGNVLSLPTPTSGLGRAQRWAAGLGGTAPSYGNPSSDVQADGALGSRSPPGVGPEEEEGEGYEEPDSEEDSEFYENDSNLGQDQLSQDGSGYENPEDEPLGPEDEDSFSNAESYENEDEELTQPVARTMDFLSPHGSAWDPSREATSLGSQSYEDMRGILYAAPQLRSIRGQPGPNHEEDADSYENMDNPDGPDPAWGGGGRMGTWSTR


Legend:
[1] = molecular target: T1, CD19; test: flow cytometry, JeKo-1 cells, anti-His-FITC detection, MFI over no-bridge control
Procedure: (§1) JeKo-1 cells were incubated with different CD19 BRiDGE variants at saturating concentrations. […] The MFI intensity correlates with the number of secondary bound antibodies bound to the CD19 BRiDGE variants that are only detected if they are bound to the JeKo-1 cells. MFI: median fluorescence intensity. BLitz: Bio-Layer interferometry (BLI) technology using HIS-tag identification tips. […] The higher the MFIR, the stronger the binding.

[2] = molecular target: T2, nfP2X7 CAR 1; test: flow cytometry, anti-His-FITC, MFI on EGFR+ (CAR+) over EGFR- (CAR-) T cells
T2 construct: CAR-positive cells gated by the co-expressed EGFR marker; also called nfP2X7 targeted CAR; nfP2X7 CAR on EGFR+ T cells
How it was run: (§2)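 CAR T cells incubated with BRiDGE variants at saturating concentrations; bound BRiDGE detected with anti-His-FITC by flow cytometry. EGFR marks CAR expression. Value is median fluorescence intensity on EGFR+ (CAR+) cells divided by that on EGFR− (CAR−) cells.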

[3] = molecular target: T1, CD19; test: flow cytometry, JeKo-1 cells, bridge at saturating conc., anti-His-FITC detection
Procedure: as §1

[4] = molecular target: T2, nfP2X7 CAR 1; test: flow cytometry, anti-His-FITC, MFI on EGFR+ (CAR+) T cells over background 0.44
How it was run: as §2

[5] = molecular target: T1, CD19; test: flow cytometry, JeKo-1 cells, bridge at saturating conc., BIL03s-AF647 detection
Procedure: as §1

[6] = molecular target: T2, nfP2X7 CAR 1; test: flow cytometry, nfP2X7 CAR 1 T cells (EGFR+ gate), anti-His-FITC detection
[7] = molecular target: T1, CD19; test: flow cytometry, JeKo-1 cells, BIL03s-AF647 detection, MFI over no-bridge control
Procedure: as §1

| Binder | MFIR HisTag FITC [1] | HisTag MFI Ratio of EGFR+/EGFR- [2] | MFI HisTag FITC [3] | HisTag MFI Ratio (background 0.44) [4] | MFI Bil03 AF647 [5] | MFI HisTag FITC in EGFR+ Population [6] | MFIR BIL03 AF647 [7] |
| --- | --- | --- | --- | --- | --- | --- | --- |
| CD19 BRIDGE variant B22 (Fab) heavy: EVQLVESGGGLVKPGGSLKLSCAASGYTFTSYVMHWVRQAPGKGLEWIGYINPYNDGTKYNEKFQGRVTISSDKSISTAYMELSSLRSEDTAMYYCARGTYYYGTRVFDYWGQGTLVTVSSASTKGPSVFPLAPSSKSTSGGTAALGCLVKDYFPEPVTVSWNSGALTSGVHTFPAVLQSSGLYSLSSVVTVPSSSLGTQTYICNVNHKPSNTKVDKKVEPKSCHHHHHH light: DFPGHNYTTRNILPGLNITSTFHKTSGSGKEPKSSDKTHTDIVMTQSPATLSLSPGERATLSCRSSKSLQNVNGNTYLYWFQQKPGQSPQLLIYRMSNLNSGVPDRFSGSGSGTEFTLTISSLEPEDFAVYYCMQHLEYPITFGAGTKLEIKRTVAAPSVFIFPPSDEQLKSGTASVVCLLNNFYPREAKVQWKVDNALQSGNSQESVTEQDSKDSTYSLSSTLTLSKADYEKHKVYACEVTHQGLSSPVTKSFNRGEC | 3.3 | 4 | 2.54 | 5 | 4.85 | 2.21 | 10.5 |
| CD19 BRIDGE variant B23 (Fab) heavy: EVQLVESGGGLVKPGGSLKLSCAASGYTFTSYVMHWVRQAPGKGLEWIGYINPYNDGTKYNEKFQGRVTISSDKSISTAYMELSSLRSEDTAMYYCARGTYYYGTRVFDYWGQGTLVTVSSASTKGPSVFPLAPSSKSTSGGTAALGCLVKDYFPEPVTVSWNSGALTSGVHTFPAVLQSSGLYSLSSVVTVPSSSLGTQTYICNVNHKPSNTKVDKKVEPKSCHHHHHH light: DFPGHNYTTRNILPGLNITSTFHKTSGSGKGSEPKSSDKTHTDIVMTQSPATLSLSPGERATLSCRSSKSLQNVNGNTYLYWFQQKPGQSPQLLIYRMSNLNSGVPDRFSGSGSGTEFTLTISSLEPEDFAVYYCMQHLEYPITFGAGTKLEIKRTVAAPSVFIFPPSDEQLKSGTASVVCLLNNFYPREAKVQWKVDNALQSGNSQESVTEQDSKDSTYSLSSTLTLSKADYEKHKVYACEVTHQGLSSPVTKSFNRGEC | 3.1 | 4.4 | 2.39 | 5.3 | 6.82 | 2.34 | 14.8 |
| CD19 BRIDGE variant B27 (Fab) heavy: EVQLVESGGGLVKPGGSLKLSCAASGYTFTSYVMHWVRQAPGKGLEWIGYINPYNDGTKYNEKFQGRVTISSDKSISTAYMELSSLRSEDTAMYYCARGTYYYGTRVFDYWGQGTLVTVSSASTKGPSVFPLAPSSKSTSGGTAALGCLVKDYFPEPVTVSWNSGALTSGVHTFPAVLQSSGLYSLSSVVTVPSSSLGTQTYICNVNHKPSNTKVDKKVEPKSCHHHHHH light: DFPGHNYTTRNILPGLNITSGGGGSEPKSSDKTHTGSDIVMTQSPATLSLSPGERATLSCRSSKSLQNVNGNTYLYWFQQKPGQSPQLLIYRMSNLNSGVPDRFSGSGSGTEFTLTISSLEPEDFAVYYCMQHLEYPITFGAGTKLEIKRTVAAPSVFIFPPSDEQLKSGTASVVCLLNNFYPREAKVQWKVDNALQSGNSQESVTEQDSKDSTYSLSSTLTLSKADYEKHKVYACEVTHQGLSSPVTKSFNRGEC | 3.25 | 4.1 | 2.5 | 5.3 | 9.6 | 2.35 | 20.9 |
| CD19 BRIDGE variant B24 (Fab) heavy: EVQLVESGGGLVKPGGSLKLSCAASGYTFTSYVMHWVRQAPGKGLEWIGYINPYNDGTKYNEKFQGRVTISSDKSISTAYMELSSLRSEDTAMYYCARGTYYYGTRVFDYWGQGTLVTVSSASTKGPSVFPLAPSSKSTSGGTAALGCLVKDYFPEPVTVSWNSGALTSGVHTFPAVLQSSGLYSLSSVVTVPSSSLGTQTYICNVNHKPSNTKVDKKVEPKSCHHHHHH light: DFPGHNYTTRNILPGLNITSTFHKTSGSGKGGGGSEPKSSDKTHTDIVMTQSPATLSLSPGERATLSCRSSKSLQNVNGNTYLYWFQQKPGQSPQLLIYRMSNLNSGVPDRFSGSGSGTEFTLTISSLEPEDFAVYYCMQHLEYPITFGAGTKLEIKRTVAAPSVFIFPPSDEQLKSGTASVVCLLNNFYPREAKVQWKVDNALQSGNSQESVTEQDSKDSTYSLSSTLTLSKADYEKHKVYACEVTHQGLSSPVTKSFNRGEC | 3.21 | 3.9 | 2.47 | 4.8 | 8.45 | 2.13 | 18.4 |
| CD19 BRIDGE variant B29 (Fab) heavy: EVQLVESGGGLVKPGGSLKLSCAASGYTFTSYVMHWVRQAPGKGLEWIGYINPYNDGTKYNEKFQGRVTISSDKSISTAYMELSSLRSEDTAMYYCARGTYYYGTRVFDYWGQGTLVTVSSASTKGPSVFPLAPSSKSTSGGTAALGCLVKDYFPEPVTVSWNSGALTSGVHTFPAVLQSSGLYSLSSVVTVPSSSLGTQTYICNVNHKPSNTKVDKKVEPKSCHHHHHH light: DFPGHNYTTRNILPGLNITSTFHKTSGSGKGSEPKSSDKTHTGSDIVMTQSPATLSLSPGERATLSCRSSKSLQNVNGNTYLYWFQQKPGQSPQLLIYRMSNLNSGVPDRFSGSGSGTEFTLTISSLEPEDFAVYYCMQHLEYPITFGAGTKLEIKRTVAAPSVFIFPPSDEQLKSGTASVVCLLNNFYPREAKVQWKVDNALQSGNSQESVTEQDSKDSTYSLSSTLTLSKADYEKHKVYACEVTHQGLSSPVTKSFNRGEC | 3.03 | 4.2 | 2.33 | 5.1 | 7.44 | 2.25 | 16.2 |
| CD19 BRIDGE variant B28 (Fab) heavy: EVQLVESGGGLVKPGGSLKLSCAASGYTFTSYVMHWVRQAPGKGLEWIGYINPYNDGTKYNEKFQGRVTISSDKSISTAYMELSSLRSEDTAMYYCARGTYYYGTRVFDYWGQGTLVTVSSASTKGPSVFPLAPSSKSTSGGTAALGCLVKDYFPEPVTVSWNSGALTSGVHTFPAVLQSSGLYSLSSVVTVPSSSLGTQTYICNVNHKPSNTKVDKKVEPKSCHHHHHH light: DFPGHNYTTRNILPGLNITSTFHKTSGSGKEPKSSDKTHTGSDIVMTQSPATLSLSPGERATLSCRSSKSLQNVNGNTYLYWFQQKPGQSPQLLIYRMSNLNSGVPDRFSGSGSGTEFTLTISSLEPEDFAVYYCMQHLEYPITFGAGTKLEIKRTVAAPSVFIFPPSDEQLKSGTASVVCLLNNFYPREAKVQWKVDNALQSGNSQESVTEQDSKDSTYSLSSTLTLSKADYEKHKVYACEVTHQGLSSPVTKSFNRGEC | 3.09 | 4.2 | 2.38 | 5.1 | 8.78 | 2.24 | 19.1 |
| CD19 BRIDGE variant B26 (Fab, V domains shown) VH: EVQLVESGGGLVKPGGSLKLSCAASGYTFTSYVMHWVRQAPGKGLEWIGYINPYNDGTKYNEKFQGRVTISSDKSISTAYMELSSLRSEDTAMYYCARGTYYYGTRVFDYWGQGTLVTVSS VL: DIVMTQSPATLSLSPGERATLSCRSSKSLQNVNGNTYLYWFQQKPGQSPQLLIYRMSNLNSGVPDRFSGSGSGTEFTLTISSLEPEDFAVYYCMQHLEYPITFGAGTKLEIKR | 3.06 | 4.2 | 2.36 | 4.9 | 5.53 | 2.17 | 12 |
